# In PMC2914225, “Fusion of GFP to the M.EcoKI DNA methyltransferase produces a new probe of Type I DNA restriction and modification enzymes” (Biochemical and Biophysical Research Communications, 2010):
# T1: GFP-MTase (M.EcoKI DNA methyltransferase, M2S1 form, with enhanced green fluorescent protein fused to the … (E. coli, UniProt P08957 1-529; P05719 1-464)
# T1 construct: HsdM modification (MTase) subunit of the Type I R/M enzyme EcoKI, E. coli; its C-terminus is fused to the N-terminus of EGFP; Construct pJFMSEGFP derives from pJFMS [18] and pEGFP-N1; EGFP serves as the FRET donor; also called M.EcoKI fused to GFP; fusion protein; not shown: EGFP, C-terminal, kept; copies: 2 + 1
# T1 sequence (looked up) 1: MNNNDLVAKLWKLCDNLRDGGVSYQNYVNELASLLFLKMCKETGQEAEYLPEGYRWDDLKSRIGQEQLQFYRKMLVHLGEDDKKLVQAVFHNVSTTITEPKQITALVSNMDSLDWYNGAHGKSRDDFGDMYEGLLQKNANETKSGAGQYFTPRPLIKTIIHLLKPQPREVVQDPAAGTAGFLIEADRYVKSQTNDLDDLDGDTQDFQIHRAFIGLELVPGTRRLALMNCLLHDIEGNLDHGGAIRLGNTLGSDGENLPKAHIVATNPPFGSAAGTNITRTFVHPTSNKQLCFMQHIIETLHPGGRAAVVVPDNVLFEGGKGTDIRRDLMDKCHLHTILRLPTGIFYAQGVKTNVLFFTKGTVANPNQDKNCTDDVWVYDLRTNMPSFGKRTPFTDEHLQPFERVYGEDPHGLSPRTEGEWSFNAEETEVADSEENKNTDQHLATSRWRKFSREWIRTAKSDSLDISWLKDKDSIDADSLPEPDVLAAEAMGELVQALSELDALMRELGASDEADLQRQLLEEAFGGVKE
# T1 sequence (looked up) 2: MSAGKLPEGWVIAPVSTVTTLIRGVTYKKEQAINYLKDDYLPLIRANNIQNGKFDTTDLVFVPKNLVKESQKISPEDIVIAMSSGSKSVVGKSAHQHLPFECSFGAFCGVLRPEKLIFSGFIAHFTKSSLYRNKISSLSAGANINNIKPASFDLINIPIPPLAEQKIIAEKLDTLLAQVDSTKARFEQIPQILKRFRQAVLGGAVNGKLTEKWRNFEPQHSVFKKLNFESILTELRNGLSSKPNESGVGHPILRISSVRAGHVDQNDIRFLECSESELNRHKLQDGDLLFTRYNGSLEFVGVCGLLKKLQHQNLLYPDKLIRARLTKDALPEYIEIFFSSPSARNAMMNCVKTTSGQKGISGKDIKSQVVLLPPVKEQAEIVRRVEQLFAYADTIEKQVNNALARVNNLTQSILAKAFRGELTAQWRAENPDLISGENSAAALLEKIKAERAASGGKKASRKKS
# T2: GFP-MTase (M.EcoKI M2S1 with EGFP fused to C-terminus of HsdS) (Escherichia coli? (EcoKI; expressed in …, UniProt P08957;P05719 1-529;1-464)
# T2 sequence 1: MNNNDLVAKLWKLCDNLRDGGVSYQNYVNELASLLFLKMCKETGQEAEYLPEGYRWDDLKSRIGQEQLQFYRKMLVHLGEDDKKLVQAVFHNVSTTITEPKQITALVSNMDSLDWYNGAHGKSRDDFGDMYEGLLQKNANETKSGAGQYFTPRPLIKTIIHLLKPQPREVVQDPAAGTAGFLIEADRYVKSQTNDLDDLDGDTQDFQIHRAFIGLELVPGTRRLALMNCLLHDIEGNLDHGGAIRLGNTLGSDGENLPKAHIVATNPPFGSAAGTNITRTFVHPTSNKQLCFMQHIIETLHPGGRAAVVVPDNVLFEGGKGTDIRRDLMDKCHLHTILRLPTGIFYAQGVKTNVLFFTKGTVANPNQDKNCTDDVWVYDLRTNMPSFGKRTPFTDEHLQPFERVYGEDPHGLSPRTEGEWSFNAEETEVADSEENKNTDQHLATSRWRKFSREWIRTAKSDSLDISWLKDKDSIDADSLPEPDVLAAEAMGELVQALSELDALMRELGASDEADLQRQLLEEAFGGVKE
# T2 sequence 2: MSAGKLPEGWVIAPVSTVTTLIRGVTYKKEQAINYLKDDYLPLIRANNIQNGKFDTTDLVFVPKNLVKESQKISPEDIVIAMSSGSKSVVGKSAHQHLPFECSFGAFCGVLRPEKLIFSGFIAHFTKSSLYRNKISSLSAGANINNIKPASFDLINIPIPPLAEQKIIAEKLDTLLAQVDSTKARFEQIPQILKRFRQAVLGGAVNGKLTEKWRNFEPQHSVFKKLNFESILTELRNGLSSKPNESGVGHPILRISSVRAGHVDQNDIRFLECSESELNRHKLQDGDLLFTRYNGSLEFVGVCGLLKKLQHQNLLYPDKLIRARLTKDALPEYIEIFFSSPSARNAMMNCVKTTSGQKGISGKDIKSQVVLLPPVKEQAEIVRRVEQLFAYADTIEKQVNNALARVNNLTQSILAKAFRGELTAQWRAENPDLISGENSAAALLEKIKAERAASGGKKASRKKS
# How the values were obtained:
# [1] = biological target: GFP-MTase (M.EcoKI DNA methyltransferase, M2S1 form, with enhanced green fluorescent protein fused to the C-terminus of HsdS) (E. coli) (UniProt P08957); experiment: SEC; labelled mutant ocr proteins with GFP-MTase, size exclusion chromatography as previously described [14]; 20 or 25 °C, 20 mM Tris-HCl pH 8.0, 6 mM MgCl2, 7 mM 2-mercaptoethanol
# [2] = biological target: T1, GFP-MTase (M.EcoKI DNA …); experiment: as above; details: both partners purified
# [3] = biological target: T2, GFP-MTase (M.EcoKI M2S1 with EGFP fused …); experiment: FRET continuous variation titration; no NaCl; 6 mM Mg2+; 1:1 complex; 20 mM Tris-HCl pH 8.0, 6 mM MgCl2, 7 mM 2-mercaptoethanol, NaCl 0-100 mM (0 for the Kd), 20 or 25 °C; details: protein: recombinant; tags: EGFP-His6 at C-terminus of HsdS; chain copies: 2;1; label: 5'-HEX on top strand; blunt
Molecule,stoichiometry N [1],also measured
Dylight549-labelled ocr E20C mutant protein (from UniProt P03775 1-117) (natural protein),1,
Dylight549-labelled ocr S68C mutant protein (from UniProt P03775 1-117) (natural protein),1,
"Dylight549-labelled ocr E117C mutant protein (natural protein, phage T7, UniProt P03775 1-117, looked up, Dylight549 maleimide on the introduced cysteine at 117 (labelling level 86.3%), gene 0.3 protein, ocr, from phage T7; one cysteine and so one acceptor label in each subunit; also called E117C ocr; E117E (as printed once); source: site directed mutagenesis and protein purification as described previously [17]) MAMSNMTYNNVFDHAYEMLKENIRYDDIRDTDDLHDAIHMAADNAVPHYYADIFSVMASEGIDLEFEDSGLMPDTKDVIRILQARIYEQLTIDLWEDAEDLLNEYLEEVEEYEEDEC",,stoichiometry N [2]: 1
21TH21B (dsDNA) DNA 1: GCCTAACCACGTGGTGCGTAC DNA 2: GTACGCACCACGTGGTTAGGC,,Kd [3]: 19 ± 7 nM
